The term IC50 denotes the concentration at which inhibition is half-maximal. Lower therefore signals higher potency. The Ki is the equilibrium dissociation constant of an inhibitor or competing ligand from its target. As a reminder, the Kd is the free concentration of one partner at which half of the binding sites on the other are occupied at equilibrium, for simple one-to-one binding. The low end stands for higher affinity, the high end for lower affinity.

These results are taken from paper PMC4288183.

Data set [1] concerns the target T1, MNV RdRp (NS7) WT (Murine norovirus 1 strain CW1) (UniProt Q80J95).
T1 sequence: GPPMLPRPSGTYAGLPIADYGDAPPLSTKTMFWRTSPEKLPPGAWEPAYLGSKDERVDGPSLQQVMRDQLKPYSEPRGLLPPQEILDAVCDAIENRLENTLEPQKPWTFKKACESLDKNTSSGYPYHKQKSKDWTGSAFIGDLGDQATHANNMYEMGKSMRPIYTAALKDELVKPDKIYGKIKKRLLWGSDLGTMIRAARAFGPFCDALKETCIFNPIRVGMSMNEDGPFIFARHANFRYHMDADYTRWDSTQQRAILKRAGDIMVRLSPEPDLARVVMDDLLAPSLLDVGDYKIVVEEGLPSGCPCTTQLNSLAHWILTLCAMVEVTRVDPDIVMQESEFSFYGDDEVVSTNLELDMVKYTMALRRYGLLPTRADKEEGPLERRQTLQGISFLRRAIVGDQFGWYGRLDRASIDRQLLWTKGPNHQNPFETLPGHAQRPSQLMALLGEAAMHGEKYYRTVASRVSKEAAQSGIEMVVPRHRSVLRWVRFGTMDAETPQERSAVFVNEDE
Briefly: fluorescence polarization competition. The settings on record: FP: 10 mM Tris-HCl pH 8.0, 30 mM NaCl, 1% glycerol, 0.5 mM 2-mercaptoethanol, 0.1 uM fMps, temperature not stated; synthesis competition: 20 mM Na glutamate pH …. For orientation: In fluorescence polarisation assays a small probe gives low polarisation when free and higher when bound to something large.

The target of data set [2] is T1, MNV RdRp (NS7) WT (Murine norovirus 1 strain CW1). The data set is described as follows: fluorescence polarization. The settings on record: FP: 10 mM Tris-HCl pH 8.0, 30 mM NaCl, 1% glycerol, 0.5 mM 2-mercaptoethanol, 0.1 uM fMps, temperature not stated; synthesis competition: 20 mM Na glutamate pH ….

In data set [1], “CUGCUGAGCGUUCCUGCGGGGUCUCAGCAU [Mhp (hairpin of Mps; also printed Mph)]” came in with an IC50 of 16200 nM and a Ki of 6300 nM.
On the same counts, the results for “GCGUCAUUCACAAAGACUGCUGAGCGUUCCUGCGGGGUCUCAGCAUCCAUU [Mps (MNV subgenomic proscript)]” are 2360 nM and 680 nM.
Sequence “GCGUCAUUCACAAAGACUGCUGAGCGUUCCUGCGGGGUCUCAGCAUCCAUU [fMps (6-FAM MNV subgenomic proscript)]” came in with a dissociation constant Kd in data set [2] of 500 nM.
